By Kd is commonly meant a measure of binding affinity in units of concentration. A higher Kd goes with a looser complex.

This experiment addresses Ran (Homo sapiens, UniProt P62826). Kind of experiment: ITC. For orientation: In ITC the heat of successive injections is recorded.

VGSWECPVCCVSNKAEDSRCVSCTSEKPG (GDP-bound Ran) [Nup153 ZnF3 ZnF3] showed a dissociation constant Kd of 6.6 µM.

B1: Nup153 ZnF region (protein)
chain: AGSSWQCDTCLLQNKVTDNKCIACQAAKLPLKETAKQTGIGTPSKSDKPASTSGTGFGDKFKPAIGTWDCDTCLVQNKPEAVKCVACETPKPGTGVKRALPLTVASESPVTASSSTTVTTGTLGFGDKFKRPVGSWECPVCCVSNKAEDSRCVSCTSEKPGLVSASSSNSVPVSLPSGGCLGLDKFKKPEGSWDCEVCLVQNKADSTKCIACESAKPGTKSEFKGFGT
modifications: GDP-bound Ran
B1 gave a Kd of 1 µM.

B2: Nup153 ZnF region (protein)
chain: AGSSWQCDTCLLQNKVTDNKCIACQAAKLPLKETAKQTGIGTPSKSDKPASTSGTGFGDKFKPAIGTWDCDTCLVQNKPEAVKCVACETPKPGTGVKRALPLTVASESPVTASSSTTVTTGTLGFGDKFKRPVGSWECPVCCVSNKAEDSRCVSCTSEKPGLVSASSSNSVPVSLPSGGCLGLDKFKKPEGSWDCEVCLVQNKADSTKCIACESAKPGTKSEFKGFGT
Regarding B2, the Kd turned out to be 20 µM.

In the case of AGSSWQCDTCLLQNKVTDNKCIACQAAKL (GDP-bound Ran) [Nup153 ZnF1 ZnF1], the Kd worked out at 6.5 µM.

Values taken from article PMC2716403 (2009).
